# Measured values from paper PMC9257043.
# Biological target: recombinant SmFGFRA extracellular ligand binding domain (rSmFGFRA-L) (Schistosoma mansoni)
# Assay: BLI; Octet RED 96; biotinylated rSmFGFRA-L immobilised on Streptavidin Biosensors, human aFGF/bFGF in dilution series as analyte; kinetic buffer (PBS with 15 mM NaCl, 0.1 mg/ml BSA, 0.002% Tween-20); association 1000 s, dissociation 1000 s; 30°C, 1000 rpm; double reference subtraction
substance,measurement,value
human basic FGF (bFGF) (from UniProt P09038 143-288) (ligand),Kd,0.36 nM
human acidic FGF (aFGF) (from UniProt P05230 16-155) (ligand),Kd,5.81 nM
